What follows are substances tested against … (SEQ. ID. No. 74) (assay: competition EIA, 5 ug HBcAg peptide + 5 ug SEQ 74 peptide on coated HBcAg (competitor); OD of bound SEQ 74 peptide).

| Substance | OD at 490 nm [OD] |
| --- | --- |
| HBcAg peptide … (residues 151-170, Sequence ID 110) | 0.732 |
| HBcAg peptide … (residues 51-70, Sequence ID 100) | 0.646 |
| HBcAg peptide … (residues 121-140, Sequence ID 107) | 0.701 |
| HBcAg peptide … (residues 111-131 as printed, Sequence ID 106) | 0.832 |
| HBcAg peptide … (residues 141-160, Sequence ID 109) | 0.811 |
| HBcAg peptide … (residues 161-183, Sequence ID 111) | 0.678 |

From patent publication US20020058247A1
